{
  "source": "patent US20230287109",
  "target": "dimeric human Tie2 extracellular domain (ECD)-human IgG fusion protein (UniProt Q02763)",
  "sequence (Q02763 23-748)": "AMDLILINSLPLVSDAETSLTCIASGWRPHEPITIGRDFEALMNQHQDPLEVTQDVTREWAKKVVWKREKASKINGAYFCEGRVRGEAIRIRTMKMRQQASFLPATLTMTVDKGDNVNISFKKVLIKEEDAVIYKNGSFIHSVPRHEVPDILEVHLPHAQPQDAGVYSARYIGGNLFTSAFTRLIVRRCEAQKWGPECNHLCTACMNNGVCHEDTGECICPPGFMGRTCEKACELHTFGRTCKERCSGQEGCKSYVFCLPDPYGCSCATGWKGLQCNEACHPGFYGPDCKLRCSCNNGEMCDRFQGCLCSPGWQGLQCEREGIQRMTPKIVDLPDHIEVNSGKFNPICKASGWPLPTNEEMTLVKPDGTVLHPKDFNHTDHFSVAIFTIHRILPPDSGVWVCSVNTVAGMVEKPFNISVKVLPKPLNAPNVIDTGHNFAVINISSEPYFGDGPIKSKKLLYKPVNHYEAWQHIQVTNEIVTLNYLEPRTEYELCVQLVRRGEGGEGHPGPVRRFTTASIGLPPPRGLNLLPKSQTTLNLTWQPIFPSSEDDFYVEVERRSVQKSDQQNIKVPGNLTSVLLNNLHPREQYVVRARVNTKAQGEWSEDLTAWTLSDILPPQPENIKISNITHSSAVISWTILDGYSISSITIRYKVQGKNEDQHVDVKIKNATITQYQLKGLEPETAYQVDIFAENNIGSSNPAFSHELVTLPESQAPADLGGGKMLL",
  "data": [
    {"substance": "Recombinant human MMP-14", "values": [
      {"measurement": "cleavage of hTie2-ECD (reducing SDS-PAGE, 30° C., 16 hours)", "value": "co-incubation of MMP-14 and human Tie2 resulted in significant reduction of intact hTie2-ECD, with the appearance of shorter, cleaved fragments"}
    ]}
  ]
}
